Columns and labels:
[1] = molecular target: recombinant human wild-type SHMT2 (isoform 3) (human); experiment: SEC; recombinant proteins purified by nickel affinity chromatography, separated by gel filtration, fractions analysed by western blot
[2] = molecular target: T1, Flag-tagged wild-type SHMT2 expressed in SHMT2-knockout HCT116 cells (human), P34897; experiment: cross-linking; cell lysates treated with or without 0.025% glutaraldehyde, western blot with anti-SHMT2; SHMT2-knockout HCT116 cells expressing Flag-tagged WT or K95Q, and SIRT3-knockout or control HCT116 cells; conditions: remark: other sources report otherwise
T1 chain: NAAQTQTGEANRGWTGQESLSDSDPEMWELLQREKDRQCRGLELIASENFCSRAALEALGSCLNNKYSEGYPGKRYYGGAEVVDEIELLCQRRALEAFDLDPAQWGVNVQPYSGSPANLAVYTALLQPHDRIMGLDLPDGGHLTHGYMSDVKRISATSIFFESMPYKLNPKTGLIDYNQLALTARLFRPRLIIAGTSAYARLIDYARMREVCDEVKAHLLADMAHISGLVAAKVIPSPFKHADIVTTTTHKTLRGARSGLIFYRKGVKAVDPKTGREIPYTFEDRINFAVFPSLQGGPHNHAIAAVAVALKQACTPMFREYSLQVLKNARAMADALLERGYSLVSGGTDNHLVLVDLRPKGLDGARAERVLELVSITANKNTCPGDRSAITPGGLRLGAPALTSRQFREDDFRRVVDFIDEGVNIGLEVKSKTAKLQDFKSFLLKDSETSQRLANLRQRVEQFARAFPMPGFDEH

[3] = molecular target: T2, serine hydroxymethyltransferase 2 (SHMT2), endogenous in HCT116 cells (human (endogenous in HCT116)), P34897; experiment: as above; conditions: remark: other sources report otherwise
T2 chain: T1 chain

For “recombinant human wild-type SHMT2 (isoform 3) (enzyme)”, the stoichiometry N [1] was 4.

B1: Flag-tagged wild-type SHMT2 expressed in SHMT2-knockout HCT116 cells, P34897 30-504 (natural protein)
chain: T1 chain
B1 was tested, and the stoichiometry N [2] was 4.

B2: serine hydroxymethyltransferase 2 (SHMT2), endogenous in HCT116 cells, P34897 30-504 (natural protein)
chain: T1 chain
B2 gave a stoichiometry N [3] of 4.

Source: paper PMC6203763
